From the supplement of paper PMC9170038

Tested on: MS2 coat protein
Test: apparent KD of MS2 coat protein; designed switch direction (-1 OFF switch, 1 ON switch): -1; higher = weaker reporter binding
Method in brief: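 Each step of the titration lasted 0.8–1.5 h at the lowest concentration and 10–20 min at the highest. The protein, SNAP-549-labelled MS2 coat protein, went from 0.7 or 1.5 nM doubling to 3 µM over RNA switches transcribed on Illumina chips by stalled E. coli RNA polymerase. Normalised cluster fluorescence was curve-fitted, and the per-design median over clusters is given as apparent KD.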

[1] = input ligand: microRNA oligo, concentration not stated
[2] = Eterna round: R95, input ligand: microRNA oligo, concentration not stated
[3] = Eterna round: R95, input ligand: FMN 200 uM
[4] = Eterna round: R95, input ligand: none

| Sequence | apparent KD of MS2 coat protein (input ligand: FMN 200 uM) [nM] | apparent KD of MS2 coat protein (input ligand: none) [nM] | apparent KD of MS2 coat protein [2] [nM] | also measured |
| --- | --- | --- | --- | --- |
| CAUUGUUAUCGAGGAUAUCGUAUUGAGAUACUACGAGAAGGCGGAAUAAACAUGAGGAUCACCCAUGUGAGACGGAUGCUUGUG [Ex NG1 #34] (Eterna round: R96, puzzle: Exclusion NG 1) | 34.1 | 28.3 |  | apparent KD of MS2 coat protein [1]: 16 nM |
| CCAAGCUUCUUCAUUAUCCACAUGAGGAUCACCCAUGUCUUGGCAAUUAUGACCUGCCCGUCAGGAGCUCGUCUUAU [Sensor-V1 #38] (Eterna round: R97, puzzle: Sensor, turn-off variant 1) | 806 | 951 |  |  |
| CCAGAGGAAGGAUAUUAAGGCGUAUACAUGAGGAUCACCCAUGUCCUACACUUCGCACUAUAAGAAGGUUCCCGGA [Eternabot (Original) Solution 39] (Eterna round: R97, puzzle: Exclusion 5) | 193 | 121 |  |  |
| CCAGCAAGUUCAGCUCGUCACAUGAGGAUCACCCAUGUUAAGUAAUCCUUCUCUUCUAGGUAGCGCCGGAGAGAGGG [Eternabot (Original) Solution 16] (Eterna round: R97, puzzle: Sensor, turn-off variant 1) | 32.6 | 43.3 |  |  |
| CCAGCGUAUGUAAGGAUAUGCUGGUCGAAAGAUCAGCAGAAGGUACAUGAGGAUCACCCAUGUGUAAUCGUUGG [Mod of JL 5 - Jieux - Brourd's mod of Exclusion 4] (Eterna round: R97, puzzle: Brourd's mod of Exclusion 4) | 52.7 | 18.9 |  |  |
| CCAUACCGAGGAUAUACAUGAGGAUCACCCAUGUCAAAACCACGUGUACGGCGGUCUUGUAGAAGGCGGAAAUA [Onbisodi] (puzzle: Exclusion 3) |  |  | 9.99 |  |
| CCAUGGGAGCGAGGAUAUAGCCCAUGGGAAGAACUAGAAGGCGCAGACAUGAGGAUCACCCAUGUGUUCAUGAGGAGGUGGACA (Eterna round: R96, puzzle: Exclusion NG 1) | 153 | 121 |  | apparent KD of MS2 coat protein [1]: 82.6 nM |
| CCAUGGGAGCGAGGAUAUAGCCCAUGGGAAGAGCUAGAAGGCGCUGACAUGAGGAUCACCCAUGUGUUCAUGAGGAGGUGGACA (Eterna round: R96, puzzle: Exclusion NG 1) | 292 | 173 |  | apparent KD of MS2 coat protein [1]: 128 nM |
| CCAUGUUAGCAGGAUAUGCAAUAAAUCUUUUAAGCAGAAGGGCUUACAUGAGGAUCACCCAUGUAUAAUUUCAA [JR_E6_Sub080] (puzzle: Exclusion 6) |  |  | 42.6 |  |
| CCCACAAGCUUUUUGCUCGACAUGAGGAUCACCCAUGUUGAAUGGGUUAUAUGUGUGUGAUACAUAUAUAUGUACCU [-24.7, -47.9 kcal, A 26%] (Eterna round: R97, puzzle: Sensor, turn-off variant 1) | 23.2 | 23.5 |  |  |
| CCCAUGCCCGAGGAUAUGCUGUACAAAAGUACUGCAGAAGGCGGGACAUGAGGAUCACCCAUGUGGCGAAAGCC [Omei Ex G7] (Eterna round: R97, puzzle: Exclusion 6) | 11.5 | 124 |  |  |
| CCCGGAUCAACUCCCGGGAACAACAUGAGGAUCACCCAUGUCUAGGAUAUCCACCAGUCAAUAAAGGAGAAGGAGACGGUGGUU [Raesessoqu] (Eterna round: R96, puzzle: Exclusion NG 3) | 32.5 | 30.5 |  | apparent KD of MS2 coat protein [1]: 23.3 nM |
| CCCUCACAUGAGGAUCACCCAUGUCAGGAUAUCUAGUCAGACAGUGUAGCACUAAUGAAGAGAAGGGACGUAUG [Edtetidi] (puzzle: Exclusion 1) |  |  | 23.9 |  |
| CCCUGACAUGAGGAUCACCCAUGUUAGGAUAUAACAUUUGACACGACAGUGUGAAGUGUUAGAAGGGAUAUGGG [-28.4, -26.7 kcal, A 31%] (Eterna round: R97, puzzle: Exclusion 1) | 36.2 | 22.1 |  |  |
| CCGAAUAUGUAGGAUAUCGUAUCGGAAACGAUACGAGAAGGGCAAACAUGAGGAUCACCCAUGUUCCUUAACGG [Fiskers Ex 6 - 13] (puzzle: Exclusion 6) |  |  | 15.1 | apparent KD of MS2 coat protein [3]: 16.3 nM; apparent KD of MS2 coat protein [4]: 14.2 nM |
| CCGACAAGCUGCUAAGGAUACAUGAGGAUCACCCAUGUCGGUAUCCGAGAGGUAUUGAAGUCAACCAUCGCUCGUCU [Eternabot (Original) Solution 49] (Eterna round: R97, puzzle: Sensor, turn-off variant 1) | 167 | 188 |  |  |
| CCGACAUGAGGAUAUCCAUCUGGAUCAGACUAGAUCCUGAUGGAGAAGGUACAUGAGGAUCACCCAUGUUACGG [Eli 4x 4.46] (Eterna round: R97, puzzle: Exclusion 4) | 372 | 330 |  |  |
| CCGACCUGAGGAUAUAGCGUCCGCGACAUGAGGAUCACCCAUGUCCCUCAUAACGUAAAACUAGAAGGUAGAGUCG [Eternabot (L1) Solution 75] (Eterna round: R97, puzzle: Exclusion 5) | 29.8 | 25.7 |  |  |

| Sequence | apparent KD of MS2 coat protein (input ligand: FMN 200 uM) [nM] | apparent KD of MS2 coat protein (input ligand: none) [nM] | apparent KD of MS2 coat protein [2] [nM] | also measured |
| --- | --- | --- | --- | --- |
| CCGAGGUGGCGGUCCUAUGACAUGAGGAUCACCCAUGUACCUCGCCACGAGCUUUUUGCUCACCUUAUAAUUCUCGG [Ragequen] (puzzle: Sensor v3, turn-off variant 1) |  |  | 17.6 | apparent KD of MS2 coat protein [3]: 18.7 nM; apparent KD of MS2 coat protein [4]: 19.4 nM |
| CCGCAAAUGCAGGAUAUCGUAUCGGAAACGAUACGAGAAGGGUAAACAUGAGGAUCACCCAUGUUCCUUAACGG [Mat - Exclusion 6 - Eli Mod - D98] (Eterna round: R96, puzzle: Exclusion 6) | 15.5 | 18.1 |  | apparent KD of MS2 coat protein [1]: 13.1 nM |
| CCGCAAAUGCAGGAUAUCGUAUCGGAAACGAUACGAGAAGGGUAAACAUGAGGAUCACCCAUGUUCCUUAACGG [Mat - Exclusion 6 - Eli Mod - D98] (puzzle: Exclusion 6) |  |  | 16.3 |  |
| CCGCAAAUGUAGGAUAUCGUAUCGGAUACGAUACGAGAAGGGCAUACAUGAGGAUCACCCAUGUGUCCUAGCGG [Fiskers Ex 6 - 44] (puzzle: Exclusion 6) |  |  | 12 |  |
| CCGCCACAUGAGGAUCACCCAUGUCAGGAUAUCUAUCAUAGCAUCGAAAGAUGCGGGUAGAGAAGGGACUAUCC [ChP Ext 10-04-2015 #6] (puzzle: Exclusion 1) |  |  | 28.1 |  |
| CCGCCAUGAGGAUAUUAGUAGUAGUCAGAAAAGACUAUUACUGAGAAGGCACAUGAGGAUCACCCAUGUAGCGG [Mat - Exclusion 4 - Eli Mod - D50] (Eterna round: R97, puzzle: Exclusion 4) | 18.8 | 41 |  |  |
| CCGCUGUGAGGAUAUUAGUAGUAGUCAGAAUAGACUAUUACUGAGAAGGCACAUGAGGAUCACCCAUGUAGCGG [Eli x4 4.25] (Eterna round: R97, puzzle: Exclusion 4) | 24.8 | 28.9 |  |  |
| CCGGAAAGGGAGGAUAUAGGAGUCGAUAGACACCUAGAAGGUCUGACAUGAGGAUCACCCAUGUGUCCUACCGG [Fiskers Ex 6 - 90] (puzzle: Exclusion 6) |  |  | 19.9 | apparent KD of MS2 coat protein [3]: 20.3 nM; apparent KD of MS2 coat protein [4]: 19.8 nM |
| CCGGAAAUAGAGGAUAUCGUAUCGGAUACGAUACGAGAAGGCUGUACAUGAGGAUCACCCAUGUGUCCUACCGG [Fiskers Ex 6 - 58] (puzzle: Exclusion 6) |  |  | 11.3 |  |
| CCGGAAAUGCAGGAUAUCGUAUCGGAUACGAUACGAGAAGGGUAGACAUGAGGAUCACCCAUGUGUCCUACCGG [Fiskers Ex 6 - 50] (puzzle: Exclusion 6) |  |  | 78.6 | apparent KD of MS2 coat protein [3]: 110 nM; apparent KD of MS2 coat protein [4]: 101 nM |
| CCGGAACAUGAGGAUCACCCAUGUCAGGAUAUUCCAAAAUCGUCGAUAGACGAUAACAGGAGAAGGGACACCGG [Mat - Exclusion 1 - Eli Mod - D30] (Eterna round: R97, puzzle: Exclusion 1) | 20.4 | 15.7 |  |  |
| CCGGAACAUGAGGAUCACCCAUGUGAGGAUAUCGUACGUUCGUCGAAAGACGAUCGUACGAGAAGGCAUGCCGG [Eli x1 4.34] (Eterna round: R97, puzzle: Exclusion 1) | 19.6 | 27.7 |  |  |
| CCGGAAUUACAGGAUAUAGGAGUCGAUAGACACCUAGAAGGGUAGACAUGAGGAUCACCCAUGUGUCCUACCGG [Fiskers Ex 6 - 85] (puzzle: Exclusion 6) |  |  | 176 |  |
| CCGGAUAUGCAGGAUAUCGUAUCGGAAACGAUACGAGAAGGGUAUACAUGAGGAUCACCCAUGUGUCCUACCGG [Fiskers Ex 6 - 20] (puzzle: Exclusion 6) |  |  | 23.8 |  |
| CCGGCAUAGGAGGAUAUAGGAGUCGAUAGACACCUAGAAGGCCUGACAUGAGGAUCACCCAUGUGUCCUACCGG [Fiskers Ex 6 - 97] (puzzle: Exclusion 6) |  |  | 12.5 |  |
| CCGGCUGCUGUGAGGAUAUGCCUGUGGGCCCGCGGGCAGAAGGCACAUGAGGAUCACCCAUGUCCUGCGGUCCC [salish99_bmx4_r4_117] (Eterna round: R97, puzzle: Brourd's mod of Exclusion 4) | 35 | 33.5 |  |  |
| CCGGCUUAGGAGGAUAUAGGAGUCGAUAGACACCUAGAAGGCCUAACAUGAGGAUCACCCAUGUGACCUACCGG [Mod of Eli 28 - Jieux - Exclusion 6] (Eterna round: R97, puzzle: Exclusion 6) | 132 | 28.6 |  |  |
